Measured values reported in patent US20160264649A1.

Tests used:
Test in all cases: cell-based or functional assay
[1] = target: HIV-1 Env of isolate MGRM-D-011 (subtype D) (HIV-1)
[2] = target: HIV-1 Env of pseudovirus isolate MGRM-G-027 (subtype G) (HIV-1)
[3] = target: HIV-1 Env of isolate 92UG005 (subtype D) (HIV-1)
[4] = target: HIV-1 Env of pseudovirus isolate MGRM-G-028 (subtype G) (HIV-1)
[5] = target: HIV-1 Env of isolate MGRM-D-001 (subtype D) (HIV-1)
[6] = target: HIV-1 Env of pseudovirus isolate MGRM-G-019 (subtype G) (HIV-1)
[7] = target: HIV-1 Env of isolate MGRM-F1-014 (subtype F) (HIV-1)
[8] = target: HIV-1 Env of pseudovirus isolate MGRM-G-017 (subtype G) (HIV-1)
[9] = target: HIV-1 Env of isolate MGRM-F1-016 (subtype F) (HIV-1)
[10] = target: HIV-1 Env of isolate MGRM-F1-006 (subtype F) (HIV-1)
[11] = target: HIV-1 Env of isolate MGRM-F1-010 (subtype F) (HIV-1)
[12] = target: HIV-1 Env of isolate MGRM-D-005 (subtype D) (HIV-1)
[13] = target: HIV-1 Env of isolate MGRM-D-019 (subtype D) (HIV-1)
[14] = target: envelope of aMLV pseudovirus (negative control)
[15] = target: HIV-1 Env of isolate 92UG046 (subtype D) (HIV-1)
[16] = target: HIV-1 Env of pseudovirus isolate MGRM-G-025 (subtype G) (HIV-1)
[17] = target: HIV-1 Env of isolate MGRM-D-022 (subtype D) (HIV-1)
[18] = target: HIV-1 Env of isolate MGRM-F1-022 (subtype F) (HIV-1)
[19] = target: HIV-1 Env of isolate MGRM-D-018 (subtype D) (HIV-1)
[20] = target: HIV-1 Env of isolate MGRM-D-029 (subtype D) (HIV-1)
[21] = target: HIV-1 Env of isolate MGRM-F1-008 (subtype F) (HIV-1)
[22] = target: HIV-1 Env of pseudovirus isolate MGRM-G-006 (subtype G) (HIV-1)
[23] = target: HIV-1 Env of isolate 98CN009 (subtype CRF07_BC) (HIV-1)
[24] = target: HIV-1 Env of isolate 98CN006 (subtype CRF08_BC) (HIV-1)
[25] = target: HIV-1 Env of isolate MGRM-D-016 (subtype D) (HIV-1)
[26] = target: HIV-1 Env of isolate MGRM-F1-017 (subtype F) (HIV-1)
[27] = target: HIV-1 Env of pseudovirus isolate MGRM-G-011 (subtype G) (HIV-1)
[28] = target: HIV-1 Env of pseudovirus isolate MGRM-G-024 (subtype G) (HIV-1)
[29] = target: HIV-1 Env of isolate MGRM-D-012 (subtype D) (HIV-1)
[30] = target: HIV-1 Env of isolate MGRM-F1-012 (subtype F) (HIV-1)
[31] = target: HIV-1 Env of isolate MGRM-F1-018 (subtype F) (HIV-1)
[32] = target: HIV-1 Env of pseudovirus isolate MGRM-G-001 (subtype G) (HIV-1)
[33] = target: HIV-1 Env of isolate MGRM-D-020 (subtype D) (HIV-1)
[34] = target: HIV-1 Env of isolate MGRM-D-013 (subtype D) (HIV-1)
[35] = target: HIV-1 Env of isolate MGRM-F1-020 (subtype F) (HIV-1)
[36] = target: HIV-1 Env of isolate MGRM-F1-021 (subtype F) (HIV-1)
[37] = target: HIV-1 Env of isolate 92UG114 (subtype D) (HIV-1)
[38] = target: HIV-1 Env of isolate MGRM-F1-013 (subtype F) (HIV-1)
[39] = target: HIV-1 Env of pseudovirus isolate MGRM-G-016 (subtype G) (HIV-1)
[40] = target: HIV-1 Env of isolate MGRM-F1-023 (subtype F) (HIV-1)
[41] = target: HIV-1 Env of isolate 92UG024 (subtype D) (HIV-1)
[42] = target: HIV-1 Env of isolate MGRM-D-004 (subtype D) (HIV-1)
[43] = target: HIV-1 Env of isolate MGRM-D-002 (subtype D) (HIV-1)
[44] = target: HIV-1 Env of isolate MGRM-D-026 (subtype D) (HIV-1)
[45] = target: HIV-1 Env of pseudovirus isolate MGRM-G-013 (subtype G) (HIV-1)
[46] = target: HIV-1 Env of isolate MGRM-D-008 (subtype D) (HIV-1)
[47] = target: HIV-1 Env of isolate 92UG001 (subtype D) (HIV-1)
[48] = target: HIV-1 Env of isolate MGRM-D-024 (subtype D) (HIV-1)
[49] = target: HIV-1 Env of isolate MGRM-D-003 (subtype D) (HIV-1)
[50] = target: HIV-1 Env of pseudovirus isolate MGRM-G-004 (subtype G) (HIV-1)
[51] = target: HIV-1 Env of pseudovirus isolate MGRM-G-015 (subtype G) (HIV-1)
[52] = target: HIV-1 Env of pseudovirus isolate MGRM-G-009 (subtype G) (HIV-1)
[53] = target: HIV-1 Env of isolate MGRM-D-014 (subtype D) (HIV-1)
[54] = target: HIV-1 Env of pseudovirus isolate MGRM-G-014 (subtype G) (HIV-1)
[55] = target: HIV-1 Env of isolate MGRM-D-028 (subtype D) (HIV-1)
[56] = target: HIV-1 Env of isolate MGRM-F1-015 (subtype F) (HIV-1)
[57] = target: HIV-1 Env of isolate MGRM-F1-004 (subtype F) (HIV-1)
[58] = target: HIV-1 Env of isolate MGRM-D-021 (subtype D) (HIV-1)

B1: PGT-131 (antibody, V domains shown)
VH: QVQLQESGPGLVKPSETLSLTCTVSGDSINTGHHYWGWVRQVPGKGPEWIAHIHYNTAVLHNPALKSRVTISIFTLKNLITLSLSNVTAADTAVYFCVRSGGDILYYIEWQKPHWFYPWGPGILVTVSS
VL: QSALTQPPSASGSLGQSLTISCSGTGSDIGSWNFVSWYQQFPGRAPNLIIFEVNRRRSGVPDRFSGSKSGNTASLTVSGLRSEDEAEYFCSSLSGRWDIVFGGGTKVTVL
With B1 the IC50 (neutralization) [1] was 0.756 µg/mL, the IC50 [2] was 2.9 µg/mL and the IC50 (neutralization) [3] was 0.854 µg/mL. For the same binder, the IC50 [4] was 0.466 µg/mL, the IC50 (neutralization) [5] was over 50 µg/mL and the IC50 [6] was over 50 µg/mL. It also gave an IC50 (neutralization) [7] of over 50 µg/mL, an IC50 [8] of over 50 µg/mL and an IC50 (neutralization) [9] of over 50 µg/mL. For the same binder, the IC50 (neutralization) [10] was over 50 µg/mL, the IC50 (neutralization) [11] was over 50 µg/mL and the IC50 (neutralization) [12] was over 50 µg/mL. For the same binder, the IC50 (neutralization) [13] was over 50 µg/mL, the IC50 [14] was over 50 µg/mL and the IC50 (neutralization) [15] was over 50 µg/mL. It also gave an IC50 [16] of 7.75 µg/mL, an IC50 (neutralization) [17] of over 50 µg/mL and an IC50 (neutralization) [18] of over 50 µg/mL. It also gave an IC50 (neutralization) [19] of 0.148 µg/mL, an IC50 (neutralization) [20] of over 50 µg/mL and an IC50 (neutralization) [21] of 2.74 µg/mL. For the same binder, the IC50 [22] was over 50 µg/mL, the IC50 (neutralization) [23] was 4.05 µg/mL and the IC50 (neutralization) [24] was 35.3 µg/mL. For the same binder, the IC50 (neutralization) [25] was over 50 µg/mL, the IC50 (neutralization) [26] was over 50 µg/mL and the IC50 [27] was over 50 µg/mL. The IC50 [28] was 10.7 µg/mL, the IC50 (neutralization) [29] was over 50 µg/mL and the IC50 (neutralization) [30] was over 50 µg/mL. The IC50 (neutralization) [31] was over 50 µg/mL, the IC50 [32] was 0.404 µg/mL and the IC50 (neutralization) [33] was over 50 µg/mL. The IC50 (neutralization) [34] was 4.14 µg/mL, the IC50 (neutralization) [35] was over 50 µg/mL and the IC50 (neutralization) [36] was over 50 µg/mL. The IC50 (neutralization) [37] was over 50 µg/mL, the IC50 (neutralization) [38] was over 50 µg/mL and the IC50 [39] was over 50 µg/mL. It also gave an IC50 (neutralization) [40] of over 50 µg/mL, an IC50 (neutralization) [41] of over 50 µg/mL and an IC50 (neutralization) [42] of 2.01 µg/mL. The IC50 (neutralization) [43] was 11.2 µg/mL, the IC50 (neutralization) [44] was over 50 µg/mL and the IC50 [45] was over 50 µg/mL. For the same binder, the IC50 (neutralization) [46] was over 50 µg/mL, the IC50 (neutralization) [47] was over 50 µg/mL and the IC50 (neutralization) [48] was over 50 µg/mL. It also gave an IC50 (neutralization) [49] of 19.6 µg/mL, an IC50 [50] of over 50 µg/mL and an IC50 [51] of over 50 µg/mL. The IC50 [52] was over 50 µg/mL, the IC50 (neutralization) [53] was 0.516 µg/mL and the IC50 [54] was 4.31 µg/mL. For the same binder, the IC50 (neutralization) [55] was over 50 µg/mL, the IC50 (neutralization) [56] was over 50 µg/mL and the IC50 (neutralization) [57] was 0.114 µg/mL. It also gave an IC50 (neutralization) [58] of 0.106 µg/mL.
